The values that follow come from patent US20020137918A1.

For orientation: Kd means the constant that tells how readily two partners part at equilibrium. The low end stands for a tighter complex, the high end for a looser complex.

Test [1] has as its target human IgG (human). The experiment in a line: method not given.
In test [2] the target is human κ-chain (human). The experiment in a line: method not given.
In test [3] the target is human IgG (human). The experiment in a line: competitive ELISA at pH 8.0, PpL on the plate. Background: ELISA stands for enzyme-linked immunosorbent assay.
In test [4] the target is human IgG (human). The experiment in a line: competitive ELISA at pH 8.0, against the Kd of PpL (112 nM).
Test [5] addresses human κ-chain (human). The experiment in a line: affinity chromatography, Y53F PpL coupled to agarose, human κ-chain eluted by rising pH.
The target in test [6] is human κ-chain (human). The experiment in a line: affinity chromatography, Y53F PpL coupled to agarose, human κ-chain eluted by falling pH.
Test [7] concerns the target human κ-chain (human). The experiment in a line: affinity chromatography, Y53F PpL coupled to agarose, human κ-chain eluted by rising KCl.
Test [8] concerns the target human κ-chain (human). The experiment in a line: Kd at pH 8, method not stated; one Kd given for the mutation, ticked in PpL and Y64W PpL.
In test [9] the target is human IgG (human). The experiment in a line: competitive ELISA, PpL on the plate, human IgG.
Test [10] has as its target human κ-chain (human). The experiment in a line: affinity chromatography, Y64W PpL coupled to agarose, human κ-chain eluted by rising pH.
The target of test [11] is human κ-chain (human). The experiment in a line: tryptophan fluorescence, complex against the sum of the spectra of the single proteins.
For test [12], the target named is human κ-chain (human). The experiment in a line: affinity chromatography, Y64W PpL coupled to agarose, human κ-chain eluted by falling pH.
The target of test [13] is human κ-chain (human). The experiment in a line: affinity chromatography, Y64W PpL coupled to agarose, human κ-chain eluted by rising KCl.
For test [14], the target named is human κ-chain (human). The experiment in a line: Kd at pH 8, method not stated; one Kd given for the mutation, ticked in Y64W PpL and F39W PpL.
Test [15] has as its target human κ-chain (human). The experiment in a line: Kd at pH 8, method not stated; mutation ticked in Y64W PpL.
The target in test [16] is human κ-chain (human). The experiment in a line: Kd at pH 8, method not stated; mutation ticked in PpL.
Test [17] addresses human κ-chain (human). The experiment in a line: competitive fluorescence titration, PpL2Asn as competitor.
The target in test [18] is human κ-chain (human). The experiment in a line: fluorescence titration of F39W into 0.75 µM kappa chain, 18 °C, pH 8.
In test [19] the target is human κ-chain (human). The experiment in a line: Kd at pH 8, method not stated; mutation ticked in F39W PpL.
Test [20] addresses human κ-chain (human). The experiment in a line: stopped flow fluorescence.
In test [21] the target is human κ-chain (human). The experiment in a line: stopped flow fluorescence, equilibrium Kd.
Test [22] addresses human κ-chain (human). The experiment in a line: stopped flow fluorescence, encounter complex.
Test [23] deals with human IgG (human). The experiment in a line: competitive ELISA, Wt PpL immobilized, human IgG.
For test [24], the target named is human κ-chain (human). The experiment in a line: isothermal titration calorimetry, 800 µM L57H PpL into 40 µM kappa light chain, 25 °C, pH 8.0.
Test [25] concerns the target human IgG (human). The experiment in a line: competitive ELISA, human IgG.
In test [26] the target is human IgG (human). The experiment in a line: competitive ELISA; told as 'previously determined for PpL'.
Test [27] deals with human κ-chain (human). The experiment in a line: affinity chromatography, PpL coupled to agarose, human κ-chain eluted by rising pH.
For test [28], the target named is human κ-chain (human). The experiment in a line: affinity chromatography, PpL coupled to agarose, human κ-chain eluted by falling pH.
The target in test [29] is human κ-chain (human). The experiment in a line: affinity chromatography, PpL coupled to agarose, human κ-chain eluted by rising KCl.
The target of test [30] is human κ-chain (human). The experiment in a line: tryptophan fluorescence, complex against the sum of the single proteins.

For Y53F PpL, the Kd with human IgG (human) [1] was 2000 nM; in the test with human IgG (human) [3], 3200 nM; with human κ-chain (human) [8] it was 1700 nM. The same molecule returned a fold reduction in affinity against PpL in the test with human κ-chain (human) [2] of 27 fold. This molecule also returned a fold increase in Kd against PpL with human IgG (human) [4] of 25 fold. The elution condition, increased pH with human κ-chain (human) [5] turned out to be 9.6 pH. The same molecule showed an elution condition, decreased pH with human κ-chain (human) [6] of 3.2 pH. The elution condition, increase KCl with human κ-chain (human) [7] is 0.75 M.

B1: Y64W PpL (protein)
chain: MNIKFAGKETPETPEEPKEEVTIKVNLIFADGKIQTAEFKGTFEEATAEAYRYADLLAKVNGEWTADLEDGGNHMNIKFAGK
B1 yielded a Kd with human IgG (human) [9] of 129 nM. Moreover, in the test with human κ-chain (human) [10], the elution condition, increased pH is 10.1 pH. This molecule showed a quench in fluorescence emission of the complex with human κ-chain (human) [11] of 9%. The molecule further gave an elution condition, decreased pH with human κ-chain (human) [12] of 2.03 pH. In the test with human κ-chain (human) [13], the elution condition, increase KCl turned out to be 0.96 M.

B2: Q35E F39W PpL (protein)
chain: MNIKFAGKETPETPEEPKEEVTIKVNLIFADGKIETAEWKGTFEEATAEAYRYADLLAKVNGEYTADLEDGGNHMNIKFAGK
In the test with human κ-chain (human) [14], B2 yielded a Kd of 300 nM.

B3: L57D Y64W PpL (protein)
chain: MNIKFAGKETPETPEEPKEEVTIKVNLIFADGKIQTAEFKGTFEEATAEAYRYADLDAKVNGEWTADLEDGGNHMNIKFAGK
B3: the Kd with human κ-chain (human) [15] stood at 2000 nM.

B4: F39H PpL (protein)
chain: MNIKFAGKETPETPEEPKEEVTIKVNLIFADGKIQTAEHKGTFEEATAEAYRYADLLAKVNGEYTADLEDGGNHMNIKFAGK
In the test with human κ-chain (human) [8], B4 showed a Kd of 1000 nM. This lies in the single-digit micromolar range.

B5: F39W PpL (protein)
chain: MNIKFAGKETPETPEEPKEEVTIKVNLIFADGKIQTAEWKGTFEEATAEAYRYADLLAKVNGEYTADLEDGGNHMNIKFAGK
As for B5, the Kd with human κ-chain (human) [16] stood at 160 nM; in the test with human κ-chain (human) [18], 161 nM. Also, the Kdapp in the presence of 5 µM PpL2Asn with human κ-chain (human) [17] came to 310 nM.

B6: N76D F39W PpL (protein)
chain: MNIKFAGKETPETPEEPKEEVTIKVNLIFADGKIQTAEWKGTFEEATAEAYRYADLLAKVNGEYTADLEDGGNHMDIKFAGK
In turn, B6 yielded a Kd in the test with human κ-chain (human) [19] of 400 nM. In other words, the sub-micromolar range.

B7: L57H Y64W PpL (protein)
chain: MNIKFAGKETPETPEEPKEEVTIKVNLIFADGKIQTAEFKGTFEEATAEAYRYADLHAKVNGEWTADLEDGGNHMNIKFAGK
For the molecule B7, in the test with human κ-chain (human) [20], the fold of equilibrium Kd against Y64W PpL amounted to 30 fold and the fold of pre-equilibrium Kd against Y64W PpL was 2 fold. In addition, the Kd with human κ-chain (human) [21] is 5400 nM. In the test with human κ-chain (human) [22], the pre-equilibrium Kd amounted to 6800 nM. Moreover, the Kd with human κ-chain (human) [8] was determined as 6000 nM.

B8: L57H PpL (protein)
chain: MNIKFAGKETPETPEEPKEEVTIKVNLIFADGKIQTAEFKGTFEEATAEAYRYADLHAKVNGEYTADLEDGGNHMNIKFAGK
Turning to B8, the Kd worked out at 4200 nM in the test with human IgG (human) [23], 6000 nM with human κ-chain (human) [8] and 5200 nM with human κ-chain (human) [24].

B9: F39H Y64W PpL (protein)
chain: MNIKFAGKETPETPEEPKEEVTIKVNLIFADGKIQTAEHKGTFEEATAEAYRYADLLAKVNGEWTADLEDGGNHMNIKFAGK
B9 had a Kd with human κ-chain (human) [8] of 1000 nM.

B10: Y53H F39W PpL (protein)
chain: MNIKFAGKETPETPEEPKEEVTIKVNLIFADGKIQTAEWKGTFEEATAEAYRHADLLAKVNGEYTADLEDGGNHMNIKFAGK
With B10, the Kd in the test with human κ-chain (human) [19] was determined as 500 nM.

B11: Q35E Y64W PpL (protein)
chain: MNIKFAGKETPETPEEPKEEVTIKVNLIFADGKIETAEFKGTFEEATAEAYRYADLLAKVNGEWTADLEDGGNHMNIKFAGK
For the molecule B11, the Kd in the test with human κ-chain (human) [14] worked out at 300 nM.

B12: PpL (protein)
chain: MNIKFAGKETPETPEEPKEEVTIKVNLIFADGKIQTAEFKGTFEEATAEAYRYADLLAKVNGEYTADLEDGGNHMNIKFAGK
On to B12, for which the dissociation constant Kd worked out at 160 nM with human IgG (human) [25] and 112 nM with human IgG (human) [26]. This molecule also displayed an elution condition, increased pH with human κ-chain (human) [27] of 10.2 pH. In the test with human κ-chain (human) [28], the elution condition, decreased pH stood at 1.96 pH. The molecule further showed an elution condition, increase KCl with human κ-chain (human) [29] of 0.95 M.

B13: Y53F Y64W PpL (protein)
chain: MNIKFAGKETPETPEEPKEEVTIKVNLIFADGKIQTAEFKGTFEEATAEAYRFADLLAKVNGEWTADLEDGGNHMNIKFAGK
For B13, the dissociation constant (Kd) in the test with human IgG (human) [3] is 3320 nM; with human κ-chain (human) [8], 1700 nM. The molecule also came in with an increase in fluorescence signal of the complex in the test with human κ-chain (human) [30] of 10%.
